In data set [1] the target is T1, soybean Bowman-Birk Inhibitor, P01055.
T1 chain: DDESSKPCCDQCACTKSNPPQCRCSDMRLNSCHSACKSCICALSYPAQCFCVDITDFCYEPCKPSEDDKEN

Data set [2] deals with T2, Soybean Kunitz Trypsin Inhibitor, P01070.
T2 chain: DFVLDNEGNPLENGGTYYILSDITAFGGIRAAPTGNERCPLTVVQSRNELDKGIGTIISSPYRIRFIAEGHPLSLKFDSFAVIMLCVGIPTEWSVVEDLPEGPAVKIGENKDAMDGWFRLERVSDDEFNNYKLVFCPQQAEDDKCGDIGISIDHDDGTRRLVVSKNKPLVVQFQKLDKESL

The target of data set [3] is soybean agglutinin (SBA), P05046.
Sequence of soybean agglutinin (SBA), P05046 (P05046 33-285): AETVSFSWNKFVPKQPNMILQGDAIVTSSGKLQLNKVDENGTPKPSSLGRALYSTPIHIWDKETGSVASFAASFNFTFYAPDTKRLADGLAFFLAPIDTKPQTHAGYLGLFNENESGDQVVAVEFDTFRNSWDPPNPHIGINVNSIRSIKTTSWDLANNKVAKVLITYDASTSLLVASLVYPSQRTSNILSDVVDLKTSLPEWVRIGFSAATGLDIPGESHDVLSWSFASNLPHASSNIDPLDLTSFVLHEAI

B1: protease derived from Bacillus sp. NCIMB 40484 (protein)
chain: MKFKKIAALSLATSLALFPAFGGSSLAKEAPKPFQPINKTLDKGAFESGEVIVKFKDGVSKKAQGSALNKAEANEQKASAKDPFQVLEVADVDQAVKALENNPNVEYAEPNYTFQATWSPNDPYYSAYQYGPQNTSTPAAWDVTRGSSTQTVAVLDSGVDYNHPDLARKVIKGYDFIDRDNNPMDLNGHGTHVAGTVAADTNNGIGVAGMAPDTKILAVRVLDANGSGSLDSIASGIRYAADQGAKVLNLSLGCECNSTTLKSAVDYAWNKGAVVVAAAGNDNVSRTFQPASYPNAIAVGAIDSNDRKASFSNYGTWVDVTAPGVNIASTVPNNGYSYMSGTSMASPHVAGLAALLASQGKNNVQIRQAIEQTADKISGTGTNFKYGKINSNKAVRY
With B1, the % of anti-nutritional factor degraded (SDS-PAGE band scanning) was 41% in data set [1], 100% in data set [2] and 21% in data set [3].
